Here are results for one substance from US20250243282A1.

For this assay, the target named is Recombinant human Gal3 (rhGal3) (TrueBinding, #QC200361) (human) (UniProt P17931). The experiment in a line: cell-based or functional assay.

Consider “MOPC21-hIgG4 (S228P) isotype control (antibody)”, for which the % inhibition of CD62L shedding stood at 21.1%.
